# Results taken from the supplement of paper PMC10567573.
# ± gives the standard deviation.
# Assay: protein stability index of a GFP-peptide fusion (GPS, HEK-293T) (PSI 1-6); higher = more stable
# Settings: c terminus: a fixed tail appended
# 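Note: 24-mer peptide tiles fused after GFP, lentivirally expressed, FACS-sorted into six equal bins by GFP/DsRed ratio, decoded by Illumina sequencing, PSI is the read-weighted mean bin number.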
Sequence,protein stability index (treatment: DMSO),"protein stability index (treatment: MLN4924 1 uM, 8 h)"
LALSPDLSLSNATVLTRSLFLGRI [FANCE],2.35 ± 0.36,2.24 ± 0.3
VDSHHEYPAMTFYSPAVMNYSIPS [ESR2],2.8 ± 0.18,2.89 ± 0.24
DTALLNLLPMLDALRFTADVRSVL [CTDNEP1],2.78 ± 0.48,2.58 ± 0.42
EESRDPTLYANNVQRVMAQALGIP [LPCAT4],3.71 ± 0.39,3.89 ± 0.33
AVIYLKKTPEEAYRALLSGSNPPY [CDC14A],2.21 ± 0.44,2.15 ± 0.46
MRKGNTMQQFLQKALEILRKDFSE [FAM50A],3.09 ± 0.59,2.89 ± 0.46
PVDGARYRWQGRRWEPSGKAEPRL [TBX6],3.68 ± 0.41,3.86 ± 0.76
NSLEGGTDATAFWWGEWTKWTACS [ADAMTSL2],–,3.25 ± 0.35
QHESGQSSSRGSSHCDSPSPQEDG [BNIP3L],5.62 ± 0.36,5.5 ± 0.16
VNNTTLTNSTPLRAACFDGHLEIV [FEM1C],2.76 ± 0.34,2.61 ± 0.38
PVPEQSALCQGLYFHINQTLREAH [FAM104A],2.46 ± 0.21,2.77 ± 0.28
SFHSSGEKQKQPRWREGTKDSHDP [PBXIP1],5.08 ± 0.17,5.19 ± 0.24
DWVSDWSSRPENIPPKEFHFRHPK [BNIP3L],3.79 ± 0.27,3.68 ± 0.093
DIVFSKIKGKSCRTITFEQFQEAL [TPPP],2.46 ± 0.29,2.31 ± 0.13
REIQPTAILSLDQIKAIRGSNEYT [SPRY1],3.99 ± 0.29,4.02 ± 0.14
QGVCYLVLCEAAFPKKLAFAYLED [SEC22B],3.26 ± 0.27,3.05 ± 0.058
DRECKLPPPSAPASEYCPGKLSWG [WDR88],3.79 ± 0.13,3.96 ± 0.36
EGRPGAATFHVGGGPAQNAPHQQP [TFE3],4.79 ± 0.17,4.8 ± 0.24
RIRSQIGNTESELKKLAEENPDLQ [GDAP1],5.42 ± 0.18,5.39 ± 0.12
YTGEIKISENLDYEETGFYEIEIQ [PCDHGA10],2.97 ± 0.18,2.87 ± 0.46
FRKFIPKCSKIVIDFDSINSRPSQ [DCTD],2.4 ± 0.27,2.15 ± 0.33
QLAKELGATYLELHSLDDFYIGKY [RHOBTB3],2.56 ± 0.56,2.33 ± 0.27
MSDSTWMSADPHLASSLSPSQDER [NOL4L],5.31 ± 0.19,5.18 ± 0.28

Sequence,protein stability index (treatment: DMSO),"protein stability index (treatment: MLN4924 1 uM, 8 h)"
ECGKAFSQNSSLVQHERIHTGDKP [ZNF8],4.49 ± 0.33,4.48 ± 0.15
FLLKFLLVGDRDVGKSEILESLQD [RAB40A],2.65 ± 0.43,2.9 ± 0.56
GDKCHSLVGKPKIFIIQACRGNQH [CASP6],2.19 ± 0.3,2.33 ± 0.66
WAGFMVLLMIPWGSAAKLVCYFTN [CHIT1],2.69 ± 0.069,2.11 ± 0.13
ENHPDVFSDSSMDHFQKFLPTVGG [MYOZ1],2.99 ± 0.5,3.34 ± 0.53
KQLRRQMWWRGCKIKAIMALVAAI [VAMP4],1.91 ± 0.44,1.92 ± 0.23
EQRADPNAKAHCGATALHFAAEAG [FEM1B],4.03 ± 0.18,3.98 ± 0.34
IYRRYRQFHALQSKLEERFGPDSK [NCF4],2.28 ± 0.23,2.61 ± 0.34
SKMDQLAKELTAEKRLEGQEEEED [CHGA],5.54 ± 0.34,5.42 ± 0.36
LLFPEEEATNGREGLLRFSSWPFS [AUP1],2.58 ± 0.23,2.51 ± 0.21
LKLLNHPNVIEYYENFLEDKALMI [NEK8],2.39 ± 0.4,2.34 ± 0.23
EERNRFTETREEDVTDEHGEREPF [FAM9B],5.62 ± 0.17,5.58 ± 0.12
ETQNAFLNERKQASAIKKEELVAR [CHGB],3.57 ± 0.12,3.77 ± 0.24
ADGARSAVVAAGGGSSGQVTSNGS [CLPTM1],5.3 ± 0.065,5.09 ± 0.14
RGCGGTDIELDAARGDAVCTACGS [BRF1],4.9 ± 0.24,4.75 ± 0.26
IQFWNSRQSLEGLSVRSVFFGVFQ [CLPTM1],2.65 ± 0.46,2.79 ± 0.91
TSYCELLQNKVPLLGSSTACIVVL [PPTC7],2.8 ± 0.1,2.55 ± 0.09
VLSVSKILHIPQVTKLCVQFLNDQ [KLHL14],2.52 ± 0.48,2.29 ± 0.35
STSQGCAQPQGAPCCSSSPEEPLN [FEM1A],5.37 ± 0.23,5.32 ± 0.15
AQTPLHVAAETGHTSTARLLLHRG [RIPK4],3.89 ± 0.12,3.91 ± 0.38
RDEVRFFKGNKYWAVQGQNVLHGY [MMP1],2.35 ± 0.22,2.51 ± 0.14
SSEHVTESVADLLALEEPVDYKQS [SLC6A17],5.17 ± 0.26,5.25 ± 0.34
QAIEPQAIVQQVPAPSRMQMPQGN [SNX8],4.64 ± 0.25,4.75 ± 0.22

Sequence,protein stability index (treatment: DMSO),"protein stability index (treatment: MLN4924 1 uM, 8 h)"
SFWNSSHPRGWNDHVHILDTETFT [KLHDC2],2.54 ± 0.17,2.39 ± 0.3
SRVAGFNPALQLILTRTDKTLNKK [TOR1AIP2],4.25 ± 0.3,4.33 ± 0.18
DADILGLKKSNSAPSKKAAKDPGK [FBF1],5.18 ± 0.18,5.22 ± 0.42
ESKDYLSLYLLLVSCPKSEVRAKF [SPOPL],2.92 ± 0.38,2.82 ± 0.63
VLAGAAEEGFMTAELAGVIKRLWK [GNAI1],2.38 ± 0.34,2.45 ± 0.057
KECGKVFSQSAGLIQHQRIHKGEK [ZSCAN9],4.42 ± 0.16,4.48 ± 0.3
LLQTEPQNNQAKELERLIDKAMKK [FIS1],3.99 ± 0.19,4.27 ± 0.17
PGPPGPTGVPGSPGHIGPPGPTGP [EMID1],5.29 ± 0.11,5.13 ± 0.44
CRLRCHPPRGPLAKHRLVPPAQGR [TRIM9],2.84 ± 0.14,3.47 ± 0.56
GKETMCTVDGLHFNSTYNARVKAF [TRIM9],3.1 ± 0.37,3.08 ± 0.23
NYSIPSNVTNLEGGPGRQTTSPNV [ESR2],4.66 ± 0.36,4.68 ± 0.27
SFNILVEDRVKLFGIEIEVTDIND [PCDHGA10],2.17 ± 0.4,2.55 ± 0.59
SRKSSIPNNKEIPSHHPTDPVELR [PTPRD],4.83 ± 0.1,5.04 ± 0.35
CSRTWTNRLCHQEMGSKKTVTQED [SPAG8],3.7 ± 0.13,3.74 ± 0.14
IAHDFPGIGHKVDAVFMKDGFFYF [MMP1],2.41 ± 0.69,2.27 ± 0.16
DILMEEEEGVVGGLSGGALSPLRA [TFE3],4.45 ± 0.42,4.11 ± 0.23
LFGEKLSGTDAEETILNAFKMLDP [MYL5],3.56 ± 0.28,3.31 ± 0.35
KKQPWWRKLFGQESGPSAEKYSVA [FUNDC2],3.1 ± 0.16,3.32 ± 0.35
HSSSRDSHLSNGLDPVAETAIRQL [C2CD2L],4.42 ± 0.35,4.53 ± 0.18
FFASGFKRAFKIKDFANTIPGHGG [CDS2],1.95 ± 0.11,2.33 ± 0.2
SPRRSLYKLVGSPPWKEAFRQRCL [RPAIN],2.27 ± 0.26,2.4 ± 0.23
EDWDSALFAELGYFTDTDELQLEA [ATF6],4.3 ± 0.21,4.65 ± 0.23
KSKKYSDVEVPASVTGYSFASDGD [ADD1],4.68 ± 0.38,4.82 ± 0.22

Sequence,protein stability index (treatment: DMSO),"protein stability index (treatment: MLN4924 1 uM, 8 h)"
AILEMKWKVRAEKEACQREKELPA [ZBED2],3.47 ± 0.29,3.56 ± 0.55
GLTLGRSFSNYRPFEPQALGLSPS [SEPHS2],2.78 ± 0.36,2.81 ± 0.49
SSFSDPFFVVETLCIIWFSFELLV [KCNA3],3.06 ± 0.48,3.2 ± 0.32
ADSLQASMEKDATLNVDRKEKCVS [DLC1],5.35 ± 0.35,5.3 ± 0.25
EPSHSVKVHTVPKPGKGADLSKPP [ATE1],4.96 ± 0.22,4.96 ± 0.27
ERVEALGQFVMKTRRTLKGHGNKV [GNB5],3.09 ± 0.7,3.52 ± 0.14
PINYQGLRFSGVNDTDFRVYLLGN [POMT2],2.27 ± 0.23,2.46 ± 0.14
DNPFGIYQKILAGKIDFPRHLDFH [PRKX],2.1 ± 0.33,2.23 ± 0.28
MVQVACGASHVLALSTERELFAWG [NEK8],2.59 ± 1.1,2.32 ± 0.84
TYEVRMRTNLPIFKLKESCVRRRY [SNX12],2.6 ± 0.15,2.54 ± 0.23
DRFAQDSEMKKCSDYESIEVPDSY [PPEF2],5.15 ± 0.23,5.15 ± 0.34
AIEHFQPNADLLFSDPSQSDPETK [FCHO1],5.5 ± 0.074,5.44 ± 0.25
DPGQQFTWEHSNLEVNKPKNRYAN [PTPRD],4.99 ± 0.39,4.98 ± 0.26
VISCEFAHNSNWYITFQSDTDAQQ [LARP4],2.47 ± 0.23,2.56 ± 0.19
EPLRSEILSGKFTILNVRDPTGAS [PTPN9],3.65 ± 0.098,3.58 ± 0.16
FQTLMFLVRDWSFPYEYSYGLQGG [ATL3],3.88 ± 1,3.15 ± 0.28
TSILSRLPPEALTAPSGGQWGAEP [RNF208],3.94 ± 0.14,4.05 ± 0.11
GKHITVFKTYISPWERAMGVDPQQ [MYOZ1],2.33 ± 0.27,2.18 ± 0.46
HYCNSSTDRRVLLMFLDICSELNK [SPACA9],2.18 ± 0.35,2.21 ± 0.29
AISLSTGRESYIPGICVARVYHGW [SLA],2.92 ± 0.85,2.48 ± 0.92
ERCLHMFLQEEAIDRNYVPGKSLA [SNX12],2.97 ± 0.31,3.05 ± 0.26
